One block for each binder: values may come before it.
Columns and labels:
[1] = target: T1, hCD22 fragment Bin 7, IVR7 (aa561-668), displayed on yeast cells (human, UniProt P20273 580-687); assay: yeast display cell ELISA, heat denatured cells (80 C, 30 min)
T1 construct: range 561-668; Range is counted on the mature ECD, not on the UniProt entry; on P20273 it would be 580-687 (my arithmetic); also called CD22 Sub-Domain 7; not shown: Aga2-HA display fusion partner of vector pPNL6; MYC tag
T1 sequence (looked up): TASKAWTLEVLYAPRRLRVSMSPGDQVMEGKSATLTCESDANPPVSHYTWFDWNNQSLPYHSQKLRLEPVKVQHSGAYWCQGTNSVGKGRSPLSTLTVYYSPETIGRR
Protocol: (§1) The YSD vector (pPNL6) was from The Pacific Northwest National Laboratory, USA. […] The HRP activity was assayed with substrate TMB (tetramethyl benzidine) according to the manufacture’s conditions and read at OD₄₅₀.
(§2) Table 7 depicts the assessment of the nature of the epitopes of CD22 sdAbs to determine if the epitopes for the sdAbs are continuous (linear) or non-continuous (conformational). […] The binding of each sdAb to native and denatured CD22 fragments was measured as OD₄₅₀, and the ratio of the binding to denatured CD22 to non-denatured CD22 was calculated, with the ratio ≥ 0.5 indicative linear (L), and the ratio < 0.5 indicative of conformational (C) epitopes.

[2] = target: T2, hCD22 fragment Bin 6, IVR6 (aa476-575), displayed on yeast cells (human, UniProt P20273 495-594); assay: yeast display cell ELISA
T2 construct: range 476-575; Range is counted on the mature ECD, not on the UniProt entry; on P20273 it would be 495-594 (my arithmetic); also called CD22 Sub-Domain 6; not shown: Aga2-HA display fusion partner of vector pPNL6; MYC tag
T2 sequence (looked up): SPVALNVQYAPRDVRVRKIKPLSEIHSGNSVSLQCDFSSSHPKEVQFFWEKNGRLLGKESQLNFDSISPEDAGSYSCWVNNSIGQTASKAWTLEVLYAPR
Protocol: as §1
(§3) The wells that gave rise to OD₄₅₀ above 0.25 were highlighted, indicating significant antibody-antigen interactions. All the sdAbs tested except hCd22_1ug-14 were assigned to specific Bin(s).

[3] = target: T3, hCD22 fragment Bin 4, IVR4 (aa303-405), displayed on yeast cells (human, UniProt P20273 322-424); assay: yeast display cell ELISA, native cells
T3 construct: Range is counted on the mature ECD, not on the UniProt entry; on P20273 it would be 322-424 (my arithmetic); also called CD22 Sub-Domain 4; not shown: Aga2-HA display fusion partner of vector pPNL6; MYC tag
T3 sequence (looked up): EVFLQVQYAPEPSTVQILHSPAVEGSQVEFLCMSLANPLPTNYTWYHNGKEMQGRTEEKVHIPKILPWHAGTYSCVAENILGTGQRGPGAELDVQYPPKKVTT
Protocol: as §1, §2

[4] = target: T3, hCD22 fragment Bin 4, IVR4 (aa303-405), …; assay: yeast display cell ELISA, biotinylated sdAb 250 nM
Protocol: as §1, §3

[5] = target: T3, hCD22 fragment Bin 4, IVR4 (aa303-405), …; assay: yeast display cell ELISA, OD on denatured over non-denatured CD22 fragment
Protocol: as §1, §2

[6] = target: T2, hCD22 fragment Bin 6, IVR6 (aa476-575), …; assay: yeast display cell ELISA, heat denatured cells (80 C, 30 min)
Protocol: as §1, §2

[7] = target: T4, full-length hCD22-ECD (668aa) displayed on yeast cells (human, UniProt P20273 20-687); assay: yeast display cell ELISA, native cells
T4 construct: extracellular domain; Yeast surface display fusion Aga2-HA-(insert)-MYC; also called Bin 8; CD22-ECD Full lenght; not shown: Aga2-HA display fusion partner of vector pPNL6; MYC tag
T4 sequence (looked up): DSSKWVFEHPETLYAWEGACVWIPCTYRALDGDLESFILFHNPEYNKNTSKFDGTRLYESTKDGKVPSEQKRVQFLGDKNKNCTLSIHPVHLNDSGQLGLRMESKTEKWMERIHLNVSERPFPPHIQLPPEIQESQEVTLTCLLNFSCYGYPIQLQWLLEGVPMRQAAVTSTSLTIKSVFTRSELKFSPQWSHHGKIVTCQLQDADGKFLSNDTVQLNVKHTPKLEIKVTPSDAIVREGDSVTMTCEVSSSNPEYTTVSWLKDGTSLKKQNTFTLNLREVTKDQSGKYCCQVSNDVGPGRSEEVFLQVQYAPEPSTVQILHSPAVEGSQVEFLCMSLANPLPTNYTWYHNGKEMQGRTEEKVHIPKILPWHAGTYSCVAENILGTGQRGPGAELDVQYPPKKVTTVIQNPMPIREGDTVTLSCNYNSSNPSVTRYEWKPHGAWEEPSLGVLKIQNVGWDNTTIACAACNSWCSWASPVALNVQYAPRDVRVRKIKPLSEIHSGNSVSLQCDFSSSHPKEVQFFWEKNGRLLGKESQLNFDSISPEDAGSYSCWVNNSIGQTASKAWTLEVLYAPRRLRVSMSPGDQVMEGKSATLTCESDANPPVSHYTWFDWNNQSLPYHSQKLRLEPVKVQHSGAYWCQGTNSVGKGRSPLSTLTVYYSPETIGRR
Protocol: as §1, §2

[8] = target: T4, full-length hCD22-ECD (668aa) displayed …; assay: yeast display cell ELISA, OD on denatured over non-denatured CD22 ECD
Protocol: as §1, §2

[9] = target: T5, hCD22 fragment Bin 1, IVR1 (aa1-135), displayed on yeast cells (human, UniProt P20273 20-154); assay: yeast display cell ELISA, native cells
T5 construct: range 1-135; Range is counted on the mature ECD, not on the UniProt entry; on P20273 it would be 20-154 (my arithmetic); also called CD22 Sub-Domain 1; not shown: Aga2-HA display fusion partner of vector pPNL6; MYC tag
T5 sequence (looked up): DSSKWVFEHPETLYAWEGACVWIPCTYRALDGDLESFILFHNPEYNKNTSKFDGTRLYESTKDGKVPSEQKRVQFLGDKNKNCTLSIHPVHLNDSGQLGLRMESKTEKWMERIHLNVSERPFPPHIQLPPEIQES
Protocol: as §1, §2

[10] = target: T5, hCD22 fragment Bin 1, IVR1 (aa1-135), …; assay: yeast display cell ELISA, biotinylated sdAb 250 nM
Protocol: as §1, §3

B1: hCD22pas-24 (VHH)
VHH: QVQLVESGGGLVQAGGSLRLSCSASGITSSINSMGWHRQAPGKQRELVASIGRGGSGSTKYADSGKGRFLISRDNNKNILFLEMNSLKPEDTADYYCLEVTTDLSSYWGRGTQVTVSS
modifications: single biotin at the VHH C-terminal (biotinylation signal sequence)
notes: llama VHH, expressed in E. coli TG1, IMAC purified, monomeric SEC fraction; also called VHH # 26; 8-hCD22 pas-24
- Heat Inactivated CD22 OD [1]: 2.11 OD450

B5: hCD22pas-64 (VHH)
VHH: QVQLVESGGGLVQAGGSLRLSCAASGSTFSLNTMAWYRQAPGNQREYVAAASSDGYTNYADSVRGRFTISRDNDKNTMYLQMNSLRPEDTAVYYCTWGTGRFADYIYWGQGTQVTVSS
modifications: single biotin at the VHH C-terminal (biotinylation signal sequence)
notes: llama VHH, expressed in E. coli TG1, IMAC purified, monomeric SEC fraction; also called VHH # 25; 7-hCD22 pas-64
- Heat Inactivated CD22 OD [6]: 2.04 OD450

B6: hCD22pas-32 (VHH)
VHH: QVQLVESGGGLVQAGGSLRLSCAVSGRIFRSYVLGWFRQAPGKERELVARIGWSDTYYADSVKGRFTISRDNAKNTVDLQMNSLKPEDTAVYYCAANSPPYGPQRDEFGYWGQGTQVTVSS
modifications: single biotin at the VHH C-terminal (biotinylation signal sequence)
notes: llama VHH, expressed in E. coli TG1, IMAC purified, monomeric SEC fraction; also called VHH # 15; 6-hCD22 pas-32
- Non denatured CD22 OD [7]: 0.789 OD450
- CD22 Ratio (D/ND) [8]: 0

The next lines start with results.

- Heat Inactivated CD22 OD [1]: 2.33 OD450
B2: hCD221ug-61 (VHH)
VHH: QVQLVESGGGLVQAGGSLRLSCAASMSSFSQYVMYWYRQAPGKQRELVATITSYSNTNYADSVKGRFTISRDNAKSIAYLQMDSLKPEDTAVYYCNAQYGSTFIRNHWDDWGQGTQVTVSS
modifications: single biotin at the VHH C-terminal (biotinylation signal sequence)
notes: llama VHH, expressed in E. coli TG1, IMAC purified, monomeric SEC fraction; also called VHH # 14; 3-hCD22 1ug-61
- binding result [2]: no binding (tested: OD450 not above 0.25; sdAb 250 nM)

- Non denatured CD22 OD [3]: 1.23 OD450
- OD450 [4]: 0.752 OD450
- CD22 Ratio (D/ND) [5]: 0.557
- Heat Inactivated CD22 OD [6]: 0.272 OD450
B3: hCD221ug-13 (VHH)
VHH: QVQLVESGGGLVQAGDSLRLSCAGSGGSFSSVTMAWFRQAPGKDREFVAAITWSSPSTYYADSVKGRFTISRDNAKNTVYLQMNSLKPEDTAVYYCAGGRTGRGTSADTDEYNYWGQGTQVTVSS
modifications: single biotin at the VHH C-terminal (biotinylation signal sequence)
notes: llama VHH, expressed in E. coli TG1, IMAC purified, monomeric SEC fraction; also called VHH # 21; 1-hCD22 1ug-13

- Heat Inactivated CD22 OD [6]: 3.5 OD450
B4: hCD221ug-36 (VHH)
VHH: EVQLVDSGGGLVQAGGSLRVSCEASGITFSRAAMGWYRQRPGKERERVAVVNSDSSTIYADSVKGRFTISRDNAKNTVYLQMNSLEPEDTAVYYCWSPGFGSYWGQGTQVTVSS
modifications: single biotin at the VHH C-terminal (biotinylation signal sequence)
notes: llama VHH, expressed in E. coli TG1, IMAC purified, monomeric SEC fraction; also called VHH # 22; 4-hCD22 1ug-36

- Non denatured CD22 OD [9]: 2.32 OD450
- OD450 [10]: 2.03 OD450
- Heat Inactivated CD22 OD [6]: 2.62 OD450
B7: hCD221ug-80 (VHH)
VHH: QVQLVESGGGLVQPGGSLRLSCTFSGFTLDYYVMVWFRQAPGKEREAVSCITSDGVTYYADSVKGRFTISRDNAKNTVYLQMNRVKPEDTAVYYCAVDKPFYDGGIQYTCPVDFDSWGQGAQVTVSS
modifications: single biotin at the VHH C-terminal (biotinylation signal sequence)
notes: llama VHH, expressed in E. coli TG1, IMAC purified, monomeric SEC fraction; also called VHH # 1; 2-hCD22 1ug-80

- Heat Inactivated CD22 OD [1]: 0.32 OD450
B8: hCD221ug-10 (VHH)
VHH: QVQLVESGGGLVQAGGSLSVSCTASESTFSIMMGWFRQAPGKQREMVAVINSAGSTNYADSAEGRFTISRDLAKKTVSLQMNSLKPEDTAVYYCYVDGYFGQGTQVTVSS
modifications: single biotin at the VHH C-terminal (biotinylation signal sequence)
notes: llama VHH, expressed in E. coli TG1, IMAC purified, monomeric SEC fraction; also called VHH # 23; 5-hCD22 1ug-10
- binding result [2]: no binding (tested: OD450 not above 0.25; sdAb 250 nM)

Source: patent US20230265185A1 (NATIONAL RESEARCH COUNCIL OF CANADA, published 2023)
